For this assay, the target named is T1, PhyB(1-651)-AviTag-His6, biotinylated photosensory domain of A. thaliana phytochrome B (A. thaliana, UniProt P14713 1-651, biotin on the AviTag motif (~80% biotinylation); chromophore phycocyanobilin (PCB)).
T1 construct: photosensory domain of phytochrome B (PhyB), A. thaliana, amino acids 1-651; Expected mass 74 kDa; also called PhyB-AviTag; source: E. coli BL21 Star (DE3), plasmid pMH1105 with HO1 and PcyA, purified (Ni-NTA IMAC, desalting); not shown: AviTag, C-terminal, kept
T1 sequence (looked up): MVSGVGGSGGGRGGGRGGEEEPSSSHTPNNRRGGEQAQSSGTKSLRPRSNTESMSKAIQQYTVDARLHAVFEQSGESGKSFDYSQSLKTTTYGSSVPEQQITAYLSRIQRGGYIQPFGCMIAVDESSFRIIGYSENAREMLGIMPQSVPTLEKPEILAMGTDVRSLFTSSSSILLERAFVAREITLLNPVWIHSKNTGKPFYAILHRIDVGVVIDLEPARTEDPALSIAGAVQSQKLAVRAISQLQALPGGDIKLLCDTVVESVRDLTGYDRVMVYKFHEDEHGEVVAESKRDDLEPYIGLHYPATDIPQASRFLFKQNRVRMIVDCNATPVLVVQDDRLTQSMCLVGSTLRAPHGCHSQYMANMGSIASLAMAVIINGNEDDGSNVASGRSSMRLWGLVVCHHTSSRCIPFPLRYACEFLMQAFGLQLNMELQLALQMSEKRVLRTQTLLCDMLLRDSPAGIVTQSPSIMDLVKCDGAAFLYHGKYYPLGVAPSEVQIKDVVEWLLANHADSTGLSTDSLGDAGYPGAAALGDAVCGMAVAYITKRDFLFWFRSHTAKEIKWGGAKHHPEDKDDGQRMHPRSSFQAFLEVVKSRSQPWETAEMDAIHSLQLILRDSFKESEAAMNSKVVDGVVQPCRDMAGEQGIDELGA
Description: SEC; equimolar mixture of PhyB-AviTag (2.2 mg/ml) and GFP-PIF6 (1.2 mg/ml) in protein buffer (PBS, 0.5 mM TCEP), illuminated 3 min with 660 nm light (100 µmol/(m^2·s)), Superdex 200 Increase 10/300 GL run in the dark, 1 ml/min, absorbance at 280, 488 and 671 nm; never frozen and frozen-thawed proteins; compared with 740 nm illumination. Conditions: both partners purified.

B1: GFP-PIF6(1-100)-His6 (domain or fragment, A. thaliana, UniProt Q8L5W7 1-100, looked up)
chain: MMFLPTDYCCRLSDQEYMELVFENGQILAKGQRSNVSLHNQRTKSIMDLYEAEYNEDFMKSIIHGGGGAITNLGDTQVVPQSHVAAAHETNMLESNKHVD
notes: Expected mass 40 kDa; source: E. coli BL21 (DE3)pLysS, plasmid pHB111, purified as described for PhyB-AviTag (Ni-NTA IMAC, desalting); not shown: GFP, N-terminal, kept
Turning to B1, the binding result is “binds”.

The record behind these values is PMC7842835, “Production, Purification and Characterization of Recombinant Biotinylated Phytochrome B for Extracellular Optogenetics” (Bio-protocol, 2020).
